The results in this text go back to doi:10.1101/2025.10.25.684504.

The term stoichiometry N denotes a count of units in the complex or per binding partner.

Test in all cases: cryo-EM structure
The target in assay [1] is Actinomyces procaprae Csm6 (ApCsm6), wild type (Actinomyces procaprae).
Assay [2] addresses ApCsm6 H369A (Actinomyces procaprae).
The target in assay [3] is ApCsm6 R723A (Actinomyces procaprae).

Regarding “Actinomyces procaprae Csm6 (ApCsm6), wild type (enzyme)”, the stoichiometry N in assay [1] turned out to be 4.

On to ApCsm6 H369A (enzyme), for which the stoichiometry N in assay [2] worked out at 4.

In assay [3], ApCsm6 R723A (enzyme) displayed a stoichiometry N of 4.
